The text below walks through data of article doi:10.1101/2022.10.27.514150 (bioRxiv, 2022).

One test deals with Gluc1-E2F4 (human, UniProt Q16254 1-413). Description: split reporter.
Test [1] concerns the target T1, minimal E2F4/DP1 heterodimer (E2F4s/DP1s) (human, UniProt Q16254 84-413; Q14186 199-350).
T1 sequence (looked up) 1: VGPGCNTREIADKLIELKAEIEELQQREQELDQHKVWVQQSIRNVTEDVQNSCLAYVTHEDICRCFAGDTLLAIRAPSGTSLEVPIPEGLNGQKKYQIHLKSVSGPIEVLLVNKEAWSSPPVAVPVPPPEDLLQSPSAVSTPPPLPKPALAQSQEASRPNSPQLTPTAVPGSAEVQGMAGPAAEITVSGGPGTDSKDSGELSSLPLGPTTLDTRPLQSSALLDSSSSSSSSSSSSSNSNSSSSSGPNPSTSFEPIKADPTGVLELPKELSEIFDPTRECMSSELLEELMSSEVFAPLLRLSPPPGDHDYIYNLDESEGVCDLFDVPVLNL
T1 sequence (looked up) 2: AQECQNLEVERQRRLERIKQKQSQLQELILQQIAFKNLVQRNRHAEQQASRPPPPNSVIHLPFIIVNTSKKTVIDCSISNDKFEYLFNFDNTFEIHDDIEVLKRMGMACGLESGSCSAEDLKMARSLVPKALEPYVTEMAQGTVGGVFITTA
Description: pull-down.

A further test addresses T2, Gluc1-ΔNp73α FL (UniProt O15350-8 1-587).
T2 sequence (looked up): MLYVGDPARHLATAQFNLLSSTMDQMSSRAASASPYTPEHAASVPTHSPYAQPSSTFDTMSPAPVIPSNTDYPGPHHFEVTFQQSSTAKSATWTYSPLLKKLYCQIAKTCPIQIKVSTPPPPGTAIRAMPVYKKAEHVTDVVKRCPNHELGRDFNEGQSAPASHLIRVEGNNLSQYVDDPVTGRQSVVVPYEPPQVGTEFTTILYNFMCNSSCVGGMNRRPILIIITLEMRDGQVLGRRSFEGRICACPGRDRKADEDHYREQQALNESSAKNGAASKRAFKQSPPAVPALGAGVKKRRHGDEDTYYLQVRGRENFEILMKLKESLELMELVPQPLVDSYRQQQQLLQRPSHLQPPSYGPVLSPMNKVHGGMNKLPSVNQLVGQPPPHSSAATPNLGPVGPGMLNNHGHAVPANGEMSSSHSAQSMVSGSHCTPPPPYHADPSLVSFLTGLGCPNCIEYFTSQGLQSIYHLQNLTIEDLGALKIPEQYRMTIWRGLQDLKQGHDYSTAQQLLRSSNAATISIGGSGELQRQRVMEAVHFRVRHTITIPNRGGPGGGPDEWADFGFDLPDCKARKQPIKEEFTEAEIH
Description: split reporter.

Another test addresses T3, Gluc1-TAp73α (UniProt O15350 1-636).
T3 sequence (looked up): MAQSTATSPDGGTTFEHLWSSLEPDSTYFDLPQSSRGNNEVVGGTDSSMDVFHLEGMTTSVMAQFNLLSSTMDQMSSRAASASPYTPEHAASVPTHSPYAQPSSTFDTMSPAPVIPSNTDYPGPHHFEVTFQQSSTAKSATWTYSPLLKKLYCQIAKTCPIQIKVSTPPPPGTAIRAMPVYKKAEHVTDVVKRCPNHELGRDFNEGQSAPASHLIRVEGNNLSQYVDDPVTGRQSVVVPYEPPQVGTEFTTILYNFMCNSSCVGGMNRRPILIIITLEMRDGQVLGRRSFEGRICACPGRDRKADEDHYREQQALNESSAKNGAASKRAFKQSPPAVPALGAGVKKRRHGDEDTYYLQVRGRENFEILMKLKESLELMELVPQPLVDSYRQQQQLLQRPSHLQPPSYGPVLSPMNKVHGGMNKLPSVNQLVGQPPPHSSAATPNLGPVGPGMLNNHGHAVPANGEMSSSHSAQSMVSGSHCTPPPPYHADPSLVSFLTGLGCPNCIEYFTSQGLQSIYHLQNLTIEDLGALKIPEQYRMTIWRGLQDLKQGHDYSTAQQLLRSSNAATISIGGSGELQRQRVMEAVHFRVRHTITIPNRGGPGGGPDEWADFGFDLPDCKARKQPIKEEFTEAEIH
Description: split reporter.

The next test has as its target T4, Gluc1-ΔN(74–348) (UniProt O15350-8 74-348).
T4 sequence (looked up): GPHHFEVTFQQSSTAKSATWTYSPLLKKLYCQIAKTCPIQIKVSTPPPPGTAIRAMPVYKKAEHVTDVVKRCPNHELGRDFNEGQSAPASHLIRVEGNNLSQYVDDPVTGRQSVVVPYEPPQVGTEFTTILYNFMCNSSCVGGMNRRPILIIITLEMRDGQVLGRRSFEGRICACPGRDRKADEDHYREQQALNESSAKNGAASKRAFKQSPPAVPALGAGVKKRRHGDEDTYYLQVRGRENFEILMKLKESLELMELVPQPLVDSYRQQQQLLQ
Put plainly: split reporter.

Some results are limits rather than exact numbers.

B1: Gluc2-DP1 (natural protein, human, UniProt Q14186 1-410, looked up)
chain: MAKDAGLIEANGELKVFIDQNLSPGKGVVSLVAVHPSTVNPLGKQLLPKTFGQSNVNIAQQVVIGTPQRPAASNTLVVGSPHTPSTHFASQNQPSDSSPWSAGKRNRKGEKNGKGLRHFSMKVCEKVQRKGTTSYNEVADELVAEFSAADNHILPNESAYDQKNIRRRVYDALNVLMAMNIISKEKKEIKWIGLPTNSAQECQNLEVERQRRLERIKQKQSQLQELILQQIAFKNLVQRNRHAEQQASRPPPPNSVIHLPFIIVNTSKKTVIDCSISNDKFEYLFNFDNTFEIHDDIEVLKRMGMACGLESGSCSAEDLKMARSLVPKALEPYVTEMAQGTVGGVFITTAGSTSNGTRFSASDLTNGADGMLATSSNGSQYSGSRVETPVSYVGEDDEEDDDFNENDEDD
Regarding B1, in the test with Gluc1-E2F4, the “normalized luminescence ratio (NLR)” value was about 500.

B2: MBP-ΔN(1-348) (domain or fragment, UniProt O15350-8 1-348, looked up)
chain: MLYVGDPARHLATAQFNLLSSTMDQMSSRAASASPYTPEHAASVPTHSPYAQPSSTFDTMSPAPVIPSNTDYPGPHHFEVTFQQSSTAKSATWTYSPLLKKLYCQIAKTCPIQIKVSTPPPPGTAIRAMPVYKKAEHVTDVVKRCPNHELGRDFNEGQSAPASHLIRVEGNNLSQYVDDPVTGRQSVVVPYEPPQVGTEFTTILYNFMCNSSCVGGMNRRPILIIITLEMRDGQVLGRRSFEGRICACPGRDRKADEDHYREQQALNESSAKNGAASKRAFKQSPPAVPALGAGVKKRRHGDEDTYYLQVRGRENFEILMKLKESLELMELVPQPLVDSYRQQQQLLQ
As to B2, the binding result in test [1] was “binds”.

B3: Gluc2-E2F(1–90) (domain or fragment)
chain: not shown
For the molecule B3, the “binding relative to ΔNp73α FL/E2F4 FL” value in the test with Gluc1-ΔNp73α FL was 20%.

B4: Gluc2-E2F(1–336) (domain or fragment)
chain: not shown
For B4, in the test with Gluc1-ΔNp73α FL, the “binding relative to ΔNp73α FL/E2F4 FL” value is 60%.

B5: Gluc2-E2F4 FL (natural protein)
chain: not shown
Consider B5, for which the “binding response relative to ΔNp73α” value in the test with Gluc1-TAp73α was about 50%. The “binding relative to ΔNp73α FL/E2F4 FL” value in the test with Gluc1-ΔN(74–348) was 60%. The “normalized luminescence ratio (NLR)” value in the test with Gluc1-ΔNp73α FL was over 20.
